Reference: patent publication US20170342151A1

Columns and labels:
CD3 on T cells [1] = target: CD3 on T cells (UniProt P07766); assay: FACS on T cells, 0.1 ug antibody, PE goat anti-human secondary; panel labelled CONTROL
CD3 on T cells [2] = target: CD3 on T cells (UniProt P07766); assay: FACS on T cells, 0.01 ug antibody, PE goat anti-human secondary; panel labelled CONTROL
CD3 on T cells [3] = target: CD3 on T cells (UniProt P07766); assay: FACS on T cells, 1 ug antibody, PE goat anti-human secondary; panel labelled CONTROL
[4] = target: CD3 antigen (surface plasmon resonance); assay: SPR, Biacore, two state reaction model
CD3 on T cells [5] = target: CD3 on T cells (UniProt P07766); assay: FACS on T cells, negative control antibody, amount not given, PE goat anti-human secondary; the same row stands in all three tables of the figure
[6] = target: human chondroitin sulfate proteoglycan 4 (CSPG4) on cells (human) (UniProt Q6UVK1); assay: FACS on M14 cells, negative control antibody, amount not given, PE goat anti-human secondary; the same row stands in all three tables of the figure
Sequence of human chondroitin sulfate proteoglycan 4 (CSPG4) on cells (human) (Q6UVK1 30-2322 limits assumed): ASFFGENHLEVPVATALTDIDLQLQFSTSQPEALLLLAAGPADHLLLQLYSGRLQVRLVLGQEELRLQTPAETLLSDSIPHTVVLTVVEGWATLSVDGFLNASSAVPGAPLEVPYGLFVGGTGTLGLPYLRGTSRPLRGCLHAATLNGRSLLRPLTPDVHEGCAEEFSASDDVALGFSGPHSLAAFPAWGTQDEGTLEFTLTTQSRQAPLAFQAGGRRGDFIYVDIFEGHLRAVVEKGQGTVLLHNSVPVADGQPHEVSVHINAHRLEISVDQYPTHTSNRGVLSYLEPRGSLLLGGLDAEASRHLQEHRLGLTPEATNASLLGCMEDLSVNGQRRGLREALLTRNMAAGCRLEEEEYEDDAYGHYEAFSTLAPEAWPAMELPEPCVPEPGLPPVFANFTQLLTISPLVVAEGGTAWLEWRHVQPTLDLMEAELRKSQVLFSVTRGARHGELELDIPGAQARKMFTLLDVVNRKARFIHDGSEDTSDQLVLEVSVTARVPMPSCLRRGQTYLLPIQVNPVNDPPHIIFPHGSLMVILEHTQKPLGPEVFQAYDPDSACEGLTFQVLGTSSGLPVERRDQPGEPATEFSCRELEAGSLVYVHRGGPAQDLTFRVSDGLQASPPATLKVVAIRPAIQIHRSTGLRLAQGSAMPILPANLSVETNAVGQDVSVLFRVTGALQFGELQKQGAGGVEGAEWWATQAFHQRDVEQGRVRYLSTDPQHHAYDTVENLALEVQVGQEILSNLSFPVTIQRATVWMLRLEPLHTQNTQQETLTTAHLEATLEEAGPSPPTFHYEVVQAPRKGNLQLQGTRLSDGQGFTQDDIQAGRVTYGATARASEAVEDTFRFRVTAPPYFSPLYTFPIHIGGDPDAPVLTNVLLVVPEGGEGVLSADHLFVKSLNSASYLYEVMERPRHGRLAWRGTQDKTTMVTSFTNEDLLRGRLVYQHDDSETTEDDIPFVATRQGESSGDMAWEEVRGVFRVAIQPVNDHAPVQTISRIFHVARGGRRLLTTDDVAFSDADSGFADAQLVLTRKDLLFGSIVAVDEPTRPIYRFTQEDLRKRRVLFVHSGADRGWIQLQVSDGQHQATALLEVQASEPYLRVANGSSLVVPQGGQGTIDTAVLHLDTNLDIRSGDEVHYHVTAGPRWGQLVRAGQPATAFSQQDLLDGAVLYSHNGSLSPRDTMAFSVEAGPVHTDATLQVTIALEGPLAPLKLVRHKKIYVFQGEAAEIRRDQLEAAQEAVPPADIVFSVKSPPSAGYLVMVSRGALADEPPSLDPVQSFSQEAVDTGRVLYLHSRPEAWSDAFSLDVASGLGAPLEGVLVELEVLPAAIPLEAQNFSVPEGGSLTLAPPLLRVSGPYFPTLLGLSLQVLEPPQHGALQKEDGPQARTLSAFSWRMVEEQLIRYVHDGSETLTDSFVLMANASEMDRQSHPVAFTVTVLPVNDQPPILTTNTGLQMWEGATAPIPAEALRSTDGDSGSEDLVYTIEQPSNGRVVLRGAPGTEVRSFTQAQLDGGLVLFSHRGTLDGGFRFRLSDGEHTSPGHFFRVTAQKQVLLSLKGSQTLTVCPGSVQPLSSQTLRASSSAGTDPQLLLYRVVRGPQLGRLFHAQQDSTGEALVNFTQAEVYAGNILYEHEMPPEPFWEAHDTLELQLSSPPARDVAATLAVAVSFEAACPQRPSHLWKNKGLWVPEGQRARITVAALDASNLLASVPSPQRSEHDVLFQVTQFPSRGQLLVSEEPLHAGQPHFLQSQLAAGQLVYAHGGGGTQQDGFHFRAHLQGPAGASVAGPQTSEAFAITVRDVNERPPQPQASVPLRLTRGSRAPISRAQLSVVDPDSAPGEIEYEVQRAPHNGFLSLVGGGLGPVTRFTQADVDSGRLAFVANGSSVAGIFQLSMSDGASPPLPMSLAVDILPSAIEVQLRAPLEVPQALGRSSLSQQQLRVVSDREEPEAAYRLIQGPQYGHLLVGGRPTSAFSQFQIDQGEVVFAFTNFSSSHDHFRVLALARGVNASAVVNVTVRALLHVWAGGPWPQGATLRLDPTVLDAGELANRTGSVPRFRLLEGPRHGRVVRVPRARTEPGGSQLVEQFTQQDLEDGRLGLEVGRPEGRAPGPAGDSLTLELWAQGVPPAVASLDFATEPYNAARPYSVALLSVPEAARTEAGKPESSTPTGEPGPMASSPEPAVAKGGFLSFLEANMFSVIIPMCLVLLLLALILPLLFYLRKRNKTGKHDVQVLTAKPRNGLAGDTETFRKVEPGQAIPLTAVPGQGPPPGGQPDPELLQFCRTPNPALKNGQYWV

Sequence of CD3 on T cells (P07766 23-207, chain 1 of 3): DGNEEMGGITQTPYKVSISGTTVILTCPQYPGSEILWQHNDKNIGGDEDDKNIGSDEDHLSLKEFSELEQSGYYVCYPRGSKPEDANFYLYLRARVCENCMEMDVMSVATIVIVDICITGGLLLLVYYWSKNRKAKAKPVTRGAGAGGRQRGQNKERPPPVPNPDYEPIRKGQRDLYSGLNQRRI
Sequence of CD3 on T cells (P09693 23-182, chain 2 of 3, further chain): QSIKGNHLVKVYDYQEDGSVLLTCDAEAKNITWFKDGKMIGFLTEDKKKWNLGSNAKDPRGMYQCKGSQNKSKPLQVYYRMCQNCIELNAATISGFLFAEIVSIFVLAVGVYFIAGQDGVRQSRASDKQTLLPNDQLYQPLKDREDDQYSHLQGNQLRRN
Sequence of CD3 on T cells (P04234 22-171, chain 3 of 3, further chain): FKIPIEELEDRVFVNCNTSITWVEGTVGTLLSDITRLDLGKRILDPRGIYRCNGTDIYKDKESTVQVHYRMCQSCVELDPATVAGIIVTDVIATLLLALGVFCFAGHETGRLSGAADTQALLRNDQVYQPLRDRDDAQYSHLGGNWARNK

| GEOMETRIC MEAN : FL2-H (CD3 on T cells [1]) | GEOMETRIC MEAN : FL2-H (CD3 on T cells [2]) | GEOMETRIC MEAN : FL2-H (CD3 on T cells [3]) | Kd [4] | koff [4] | kon [4] | GEOMETRIC MEAN : FL2-H (CD3 on T cells [5]) | GEOMETRIC MEAN : FL2-H [6] | Substance |
| --- | --- | --- | --- | --- | --- | --- | --- | --- |
| 645 | 66.1 | 2010 | 0.0617 µM | 0.105 s⁻¹ | 1.71e+06 M⁻¹ s⁻¹ |  |  | humanized OKT3 IgG1-aGlyco (antibody) |
|  |  |  |  |  |  | 5.1 | 5.15 | control human IgG1 antibody (non-specific for CSPG4 or T cells) |
